Results: paper PMC6131205, “Controlling the regioselectivity and stereospecificity of FAD-dependent polyamine oxidases with the use of amine-attached guide molecules as conformational modulators” (Bioscience Reports, 2018)
Several values for one entry are separate records, joined by “and”; a condition that tells them apart may be missing. Equal entries are not always repeated.

Key:
Assay in all cases: purified protein, by the assay type;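 also: recombinant polyamine oxidases incubated with substrate, product amines (putrescine, 1,3-diaminopropane or butane-1,3-diamine) quantified by HPLC after post-column o-phthalaldehyde derivatization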
[1] = substrate: CC(=O)NC(C)CCNCCCCN; details: other: Supplementary Table 1, pH 9.0, 100 mM Glycine-NaOH, 25°C, Put formation
Protocol: (§1) HPLC with post-column o-phthalaldehyde-derivatization was used to determine the concentrations of the reaction products Put and 1,3-diaminopropane (DAP) or butane-1,3-diamine respectively as described in [30]. Fms1 activity was determined essentially as described for human recombinant APAO, but reactions were carried out in 100 mM Glycine-NaOH buffer at pH 9.0 in a water bath at +25°C [29, 30].
(§2) The reactions were carried out in 1 triplicate at pH 9.0 in 100 mM Glycine-NaOH at +25°C.
(§3) values for N -Ac-MeSpd enantiomers were determined by using substrate concentrations of 25, 50,
(§4) for Rac-MeSpd 30 min, (R)-MeSpd 20 min and (S)-MeSpd 40 minutes.
(§5) The reactions were carried out in triplicate at pH 9.0 in 100 mM Glycine-NaOH at +25°C.
(§6) values for MeSpd enantiomers were determined by using substrate concentrations of 100, 300, 600,
(§7) 1000, 2000 and 4000 M. Recombinant Fms1 was 3.8 g/reaction and the incubation time 60
(§8) incubated for 30 min (half of the reaction time of an ordinary sample). E1 cleavage was monitored
(§9) by HPLC by measuring Put formation and E2 cleavage by determining butane-1,3-diamine content.

[2] = substrate: CC(=O)NCCCCNCCCN; details: other: substrate alone, no aldehyde, pH 9.0, 25°C
Protocol: as §1, §2, §3, §4, §5, §6, §7, §8, §9

[3] = substrate: CC(=O)NCCCNCCCCN; details: other: substrate alone, no aldehyde, pH 9.0, 25°C
Protocol: as §1, §2, §3, §4, §5, §6, §7, §8, §9

[4] = substrate: CC(=O)N[C@@H](C)CCNCCCCN; details: other: Supplementary Table 1, pH 9.0, 100 mM Glycine-NaOH, 25°C, Put formation
Protocol: as §1, §2, §3, §4, §5, §6, §7, §8, §9

[5] = substrate: CC(=O)N[C@H](C)CCNCCCCN; details: other: Supplementary Table 1, pH 9.0, 100 mM Glycine-NaOH, 25°C, Put formation
Protocol: as §1, §2, §3, §4, §5, §6, §7, §8, §9

[6] = substrate: CC(N)CCNCCCCN; details: other: Supplementary Table 2, pH 9.0, 25°C
Protocol: as §1, §2, §3, §4, §5, §6, §7, §8, §9

[7] = substrate: NCCCCNCCCN; details: other: substrate alone, no aldehyde, pH 9.0, 25°C
Protocol: as §1, §2, §3, §4, §5, §6, §7, §8, §9

B1: Fms1 (Saccharomyces cerevisiae S288C) (protein)
chain: MNTVSPAKKKVIIIGAGIAGLKAASTLHQNGIQDCLVLEARDRVGGRLQTVTGYQGRKYDIGASWHHDTLTNPLFLEEAQLSLNDGRTRFVFDDDNFIYIDEERGRVDHDKELLLEIVDNEMSKFAELEFHQHLGVSDCSFFQLVMKYLLQRRQFLTNDQIRYLPQLCRYLELWHGLDWKLLSAKDTYFGHQGRNAFALNYDSVVQRIAQSFPQNWLKLSCEVKSITREPSKNVTVNCEDGTVYNADYVIITVPQSVLNLSVQPEKNLRGRIEFQPPLKPVIQDAFDKIHFGALGKVIFEFEECCWSNESSKIVTLANSTNEFVEIVRNAENLDELDSMLEREDSQKHTSVTCWSQPLFFVNLSKSTGVASFMMLMQAPLTNHIESIREDKERLFSFFQPVLNKIMKCLDSEDVIDGMRPIENIANANKPVLRNIIVSNWTRDPYSRGAYSACFPGDDPVDMVVAMSNGQDSRIRFAGEHTIMDGAGCAYGAWESGRREATRISDLLK
**Q.** What does the source list for B1?
**A.** Km [1]: 140 ± 23 µM; Km [2]: 122 ± 18 µM; kcat [2]: 1.4 ± 0.1 s⁻¹; kcat/Km [2]: (12 ± 1.8) × 10^3 M^−1s^−1; Km [3]: 42 ± 8 µM; kcat [3]: 65 ± 2 s⁻¹; kcat/Km [3]: (1600 ± 300) × 10^3 M^−1s^−1; Km [4]: 109 ± 18 µM; Km [5]: 155 ± 29 µM; Km ([6]; Put formation): 502 µM and 555 µM; kcat ([6]; Put formation): 0.014 ± 0 s⁻¹ and 0.011 ± 0 s⁻¹; kcat/Km ([6]; Put formation): 28 M⁻¹ s⁻¹ and 20 M⁻¹ s⁻¹; Km ([6]; butane-1,3-diamine formation): 467 µM and 606 µM; kcat ([6]; butane-1,3-diamine formation): 0.006 ± 0 s⁻¹ and 0.013 ± 0 s⁻¹; kcat/Km ([6]; butane-1,3-diamine formation): 13 M⁻¹ s⁻¹ and 22 M⁻¹ s⁻¹; Km [7]: 534 ± 36 µM and 643 ± 52 µM
